What was measured:
[1] = biological target: 149 proteins which strongly interact with THAP1; assay: TAP-MS, anti-Flag pull-down of tagged THAP1 against empty vector, LC-MS/MS peak area ratios
[2] = biological target: T1, CTCF (CCCTC-binding factor / Transcriptional repressor CTCF) (UniProt P49711 1-727); assay: anti-Flag pull-down of tagged THAP1 from HEK-293 nuclear extract (TAP), Western blot
T1 sequence (looked up): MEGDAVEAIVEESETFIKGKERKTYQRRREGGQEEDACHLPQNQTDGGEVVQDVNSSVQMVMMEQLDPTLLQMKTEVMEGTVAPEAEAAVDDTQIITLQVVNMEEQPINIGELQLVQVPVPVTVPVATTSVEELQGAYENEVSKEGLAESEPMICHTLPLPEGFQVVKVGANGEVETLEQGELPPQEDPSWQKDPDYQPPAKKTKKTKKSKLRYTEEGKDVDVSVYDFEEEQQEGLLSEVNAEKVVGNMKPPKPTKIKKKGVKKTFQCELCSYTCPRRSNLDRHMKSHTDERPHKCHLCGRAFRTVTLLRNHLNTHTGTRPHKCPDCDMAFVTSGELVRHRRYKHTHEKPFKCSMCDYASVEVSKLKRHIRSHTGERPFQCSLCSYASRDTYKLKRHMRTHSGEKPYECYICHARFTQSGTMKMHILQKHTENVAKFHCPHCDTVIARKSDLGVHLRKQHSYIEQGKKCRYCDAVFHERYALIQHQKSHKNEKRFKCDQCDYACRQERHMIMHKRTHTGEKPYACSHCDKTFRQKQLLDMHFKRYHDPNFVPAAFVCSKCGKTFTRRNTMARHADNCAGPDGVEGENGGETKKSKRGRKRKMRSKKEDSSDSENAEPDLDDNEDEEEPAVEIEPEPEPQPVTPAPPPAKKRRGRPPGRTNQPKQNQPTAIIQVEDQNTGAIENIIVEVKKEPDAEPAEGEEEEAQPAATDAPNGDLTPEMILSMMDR

B1: Strep/FLAG tagged THAP1 protein (other, human, UniProt Q9NVV9 1-213, looked up)
chain: MVQSCSAYGCKNRYDKDKPVSFHKFPLTRPSLCKEWEAAVRRKNFKPTKYSSICSEHFTPDCFKRECNNKLLKENAVPTIFLCTEPHDKKEDLLEPQEQLPPPPLPPPVSQVDAAIGLLMPPLQTPVNLSVFCDHNYTVEDTMHQRKRIHQLEQQVEKLRKKLKTAQQRCRRQERQLEKLKEVVHFQKEKDDVSERGYVILPNDYFEIVEVPA
notes: Bait of the TAP-MS pull-down from nuclear extract of HEK-293 cells on anti-Flag M2 agarose, with benzonase added; also called wild-type THAP1; hTHAP1; not shown: Strep/FLAG tag
log2 (TAP-MS ratio) [1]: 15 log2
binding result [2]: binds

Source: EP4342988A1 (Eberhard Karls Universität Tübingen, Medizinische Fakultät, dated 2024)
